Reference: publication PMC4947174 (Nature Communications, 2016)

B1: Pol I subunit A14 (natural protein, S. cerevisiae (endogenous in yeast), UniProt P50106 1-137, looked up)
chain: MMKGSRRTGNNTATTLNTPVVIHATQLPQHVSTDEVLQFLESFIDEKENIIDSTTMNTISGNAADADAAAVANTSLNIDTNLSSSISQLKRIQRDFKGLPPAQDFSAAPIQVSTTEKKETSIGVSATGGKKTTFADE
notes: A14, subunit of RNA polymerase I, S. cerevisiae; source: endogenous, S. cerevisiae; part of Pol I purified with Rrn3-ProtA (y2183)
B2: Rrn3 (Pol I-specific initiation factor), overexpressed in yeast as Rrn3-TEV-ProtA-His7 (natural protein, S. cerevisiae)
chain: MMAFENTSKRPPQDFVAPIDQKKRKVQFSDSTGLVTLQPEEIKDEVFSAAMYSRFVKSALDDLDKNDSTQIGIIANQVALPSKNPERINDKNLNILLDILSSNINRIESSRGTFLIQSIINFEKWWELPPHTLSKYIYFIKILCSSIPKWWQDVSMILVSCFILPIKQTVCHHDMLKYFLRMIPSSMGFIDTYLAKFFPNKNDTRRKLVNYTSNLLKLRGYCSELGFQIWSLLIEKIISIDVELQNELDELDDDVDDDDLEEVDLEDDDDLDDDSGDDDDENCGNSNEELRSGAADGSQSDSEDMDIIEGMDGTEEYNVELTQGIKELSTKLDSILTLVSTHVEEQVTPESLESGEGVGVFNTLTTLFKTHVLPTYYTRSIQYIMFHVSQQQLELMDSFLVTLIDISFAVNEAAEKKIKSLQYLGSYIARAKKLSRTQIIFVASYLTSWLNRYVIEREEEVDQRGGMERFKHFYAAFQALCYIFCFRHNIFRDTDGNWECELDKFFQRMVISKFNPLKFCNENVMLMFARIAQQESVAYCFSIIENNNNERLRGIIGKADSDKKENSAQANTTSSSWSLATRQQFIDLQSYFPYDPLFLKNYKILMKEYYIEWSEASGEYESDGSDD
notes: Rrn3, RNA polymerase I-specific transcription initiation factor, S. cerevisiae; Released from the beads by TEV protease; source: S. cerevisiae strain y2183 with plasmid 729 (Ycplac111-GAL-Rrn3-TEV-ProtA-HIS), galactose-induced; purified in complex with Pol I (IgG beads, TEV elution)
B3: Pol I subunit AC40 (natural protein, S. cerevisiae (endogenous in yeast), UniProt P07703 1-335, looked up)
chain: MSNIVGIEYNRVTNTTSTDFPGFSKDAENEWNVEKFKKDFEVNISSLDAREANFDLINIDTSIANAFRRIMISEVPSVAAEYVYFFNNTSVIQDEVLAHRIGLVPLKVDPDMLTWVDSNLPDDEKFTDENTIVLSLNVKCTRNPDAPKGSTDPKELYNNAHVYARDLKFEPQGRQSTTFADCPVVPADPDILLAKLRPGQEISLKAHCILGIGGDHAKFSPVSTASYRLLPQINILQPIKGESARRFQKCFPPGVIGIDEGSDEAYVKDARKDTVSREVLRYEEFADKVKLGRVRNHFIFNVESAGAMTPEEIFFKSVRILKNKAEYLKNCPITQ
notes: AC40, subunit shared by RNA polymerases I and III, S. cerevisiae; source: endogenous, S. cerevisiae; part of Pol I purified with Rrn3-ProtA (y2183)
B4: Pol I subunit AC19 (natural protein, S. cerevisiae (endogenous in yeast), UniProt P28000 1-142, looked up)
chain: MTEDIEQKKTATEVTPQEPKHIQEEEEQDVDMTGDEEQEEEPDREKIKLLTQATSEDGTSASFQIVEEDHTLGNALRYVIMKNPDVEFCGYSIPHPSENLLNIRIQTYGETTAVDALQKGLKDLMDLCDVVESKFTEKIKSM
notes: AC19, subunit shared by RNA polymerases I and III, S. cerevisiae; source: endogenous, S. cerevisiae; part of Pol I purified with Rrn3-ProtA (y2183)

Key:
[1] = biological target: Rrn3-free RNA polymerase I (WT Pol I) purified through A135-TEV-ProtA (S. cerevisiae (endogenous in yeast) | S. cerevisiae) (UniProt P10964)
Sequence of Rrn3-free RNA polymerase I (WT Pol I) purified through A135-TEV-ProtA (S. cerevisiae (endogenous in yeast) | S. cerevisiae) (P10964 whole entry, looked up): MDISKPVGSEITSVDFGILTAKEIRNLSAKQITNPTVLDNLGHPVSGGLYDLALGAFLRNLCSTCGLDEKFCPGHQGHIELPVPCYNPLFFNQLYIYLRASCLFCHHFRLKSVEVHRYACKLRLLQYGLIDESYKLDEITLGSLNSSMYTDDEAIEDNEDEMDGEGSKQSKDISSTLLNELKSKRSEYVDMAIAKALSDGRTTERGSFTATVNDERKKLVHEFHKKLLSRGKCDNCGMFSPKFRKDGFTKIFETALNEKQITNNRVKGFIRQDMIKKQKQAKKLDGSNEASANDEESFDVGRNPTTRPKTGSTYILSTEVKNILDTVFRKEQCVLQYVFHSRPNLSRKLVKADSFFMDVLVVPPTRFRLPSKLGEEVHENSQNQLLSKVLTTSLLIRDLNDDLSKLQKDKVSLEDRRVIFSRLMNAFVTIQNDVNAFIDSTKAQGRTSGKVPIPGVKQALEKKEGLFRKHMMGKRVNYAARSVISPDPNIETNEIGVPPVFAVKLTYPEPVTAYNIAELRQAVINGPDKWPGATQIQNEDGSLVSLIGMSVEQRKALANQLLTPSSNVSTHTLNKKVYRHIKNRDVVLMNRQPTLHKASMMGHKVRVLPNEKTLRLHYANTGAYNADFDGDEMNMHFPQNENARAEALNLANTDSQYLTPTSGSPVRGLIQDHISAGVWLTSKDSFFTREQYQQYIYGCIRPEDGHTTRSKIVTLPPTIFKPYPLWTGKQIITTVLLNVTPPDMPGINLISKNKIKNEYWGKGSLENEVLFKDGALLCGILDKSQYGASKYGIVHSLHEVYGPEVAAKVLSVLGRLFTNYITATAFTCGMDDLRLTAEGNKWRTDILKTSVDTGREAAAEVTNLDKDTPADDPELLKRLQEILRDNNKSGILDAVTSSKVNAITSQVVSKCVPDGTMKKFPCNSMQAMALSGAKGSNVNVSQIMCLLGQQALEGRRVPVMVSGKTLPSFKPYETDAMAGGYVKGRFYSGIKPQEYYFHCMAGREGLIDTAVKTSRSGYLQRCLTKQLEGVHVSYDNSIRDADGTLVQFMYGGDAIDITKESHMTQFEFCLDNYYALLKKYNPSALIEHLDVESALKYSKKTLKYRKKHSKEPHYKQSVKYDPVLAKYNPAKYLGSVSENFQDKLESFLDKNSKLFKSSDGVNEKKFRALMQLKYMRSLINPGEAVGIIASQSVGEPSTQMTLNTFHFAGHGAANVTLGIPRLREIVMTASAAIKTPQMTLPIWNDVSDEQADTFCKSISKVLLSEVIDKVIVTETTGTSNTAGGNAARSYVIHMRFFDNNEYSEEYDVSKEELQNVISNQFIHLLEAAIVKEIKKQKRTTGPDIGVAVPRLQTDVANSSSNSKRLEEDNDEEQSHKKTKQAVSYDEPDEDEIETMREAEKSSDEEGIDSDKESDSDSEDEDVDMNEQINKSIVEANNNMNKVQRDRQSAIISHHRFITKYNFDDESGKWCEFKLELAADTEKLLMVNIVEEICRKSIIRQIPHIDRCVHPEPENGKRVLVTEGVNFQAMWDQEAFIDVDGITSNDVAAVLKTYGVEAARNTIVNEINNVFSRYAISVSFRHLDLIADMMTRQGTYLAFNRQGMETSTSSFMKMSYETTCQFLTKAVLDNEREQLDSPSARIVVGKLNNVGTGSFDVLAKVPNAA

[2] = biological target: B2; test: cryo-EM structure; Pol I-Rrn3 complex purified from yeast, cross-linked with 0.5% glutaraldehyde for 2 min; 20 mM Hepes pH 7.8, 100 mM ammonium acetate, 2 mM MgCl2; 32,438 particles of intact complex; 7.5 Å; crystal structures of Pol I and Rrn3 docked into the map; conditions: both partners purified
[3] = biological target: T1, Pol I subunit A190 (largest subunit) (S. cerevisiae (endogenous in yeast), UniProt P10964 1-1664); test: as above; conditions: both partners purified
T1 construct: A190, largest subunit of RNA polymerase I, S. cerevisiae; source: endogenous, S. cerevisiae; part of Pol I purified with Rrn3-ProtA (y2183) or through A135-ProtA (y2423)
T1 sequence (P10964 whole entry): as the sequence (P10964 whole entry, looked up) above

Molecule	binding result [2]	also measured
Recombinant His6-Rrn3 (from UniProt P36070 1-627) (natural protein)	–	promoter-dependent in vitro transcription: purified Pol I-Rrn3 complex against the same concentration of Rrn3-free Pol I with recombinant His6-Rrn3 (70 nM) and CF (20 nM) [1]: < 10 fold
B1	binds	–
B2	–	binding result [3]: binds
B3	binds	–
B4	binds	–
